Literature values, collected in PMC7035337.

Target: vimentin (Homo sapiens) (UniProt P08670)
Sequence (P08670 2-466): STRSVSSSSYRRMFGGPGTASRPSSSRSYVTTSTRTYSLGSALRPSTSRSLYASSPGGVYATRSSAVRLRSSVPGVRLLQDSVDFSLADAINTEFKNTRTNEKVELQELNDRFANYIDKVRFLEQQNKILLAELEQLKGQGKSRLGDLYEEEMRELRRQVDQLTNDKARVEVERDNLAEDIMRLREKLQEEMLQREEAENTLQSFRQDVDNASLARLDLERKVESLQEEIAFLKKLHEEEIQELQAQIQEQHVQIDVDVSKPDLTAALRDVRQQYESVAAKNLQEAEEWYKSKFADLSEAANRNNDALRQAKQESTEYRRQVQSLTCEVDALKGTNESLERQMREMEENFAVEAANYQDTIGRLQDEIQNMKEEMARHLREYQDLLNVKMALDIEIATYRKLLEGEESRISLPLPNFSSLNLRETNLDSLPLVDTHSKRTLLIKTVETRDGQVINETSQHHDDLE

Chain of envoplakin PRD (Q92817 1822-2014): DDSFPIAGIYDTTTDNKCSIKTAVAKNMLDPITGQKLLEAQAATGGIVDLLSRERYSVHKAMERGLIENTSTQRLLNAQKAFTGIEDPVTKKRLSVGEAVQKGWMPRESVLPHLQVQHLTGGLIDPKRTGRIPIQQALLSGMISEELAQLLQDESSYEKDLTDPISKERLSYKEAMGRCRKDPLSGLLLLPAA

- Kd: 19.1 µM
Substance: envoplakin PRD (from UniProt Q92817)
